The experiment has as its target T1, human caspase-8β (Homo sapiens, UniProt Q14790).
T1 construct: expressed in transfected cells; host or cells: Saccharomyces cerevisiae FY250, single-copy ARS/CEN vector YCpGAL1-caspase-8β-L, GAL1 promoter
The experiment can be described thus: Yeast screening method: suppression of caspase-8β-induced lethality in S. cerevisiae FY250 double transformants on galactose medium. The class given is cell-based. As to conditions: for identified as a caspase inhibitor (product of human brain cDNA suppressing caspase-8β-induced cell death): FY250 double transformants, GAL1-driven expression, galactose-containing medium; for Caspase Inhibitor: Table 1 Caspase Modulators, identified using the screening method of the invention. The text has this:
The invention includes a screening method of determining whether a compound is a caspase modulator. […] A difference between the viability indicator of the first cell and the viability indicator of the second cell is an indication that the compound is a caspase modulator.
As described herein, the transformant expresses the caspase when an inducer of the inducible promoter of the caspase vector is provided to the caspase transformant. When the caspase transformant expresses the caspase, cytotoxicity ensues in the caspase transformant. If an inhibitor of the caspase is provided to the caspase transformant prior to the onset of cytotoxicity, the caspase transformant may be enabled to survive expression of the caspase or the onset of cytotoxicity may be delayed.
The gene encoding p35 was cloned into a yeast-based expression vector designated YCpGAL1-U (wherein U designates a URA3 selectable marker) to yield a YCpGAL1-p35-U inhibitor vector. Yeast cells were co-transformed with the inhibitor vector, YCpGAL1-p35-U, and with the caspase vector, YCpGAL1-caspase-8β-L, to yield a double transformant. Double transformants were plated on SC-leucine-uracil medium supplemented with dextrose to repress GAL1 promoter function. Serial ten-fold dilutions of individual double transformants grown in SC-leucine-uracil medium containing dextrose were prepared and spotted onto SC-leucine-uracil medium comprising dextrose or galactose.
Individual viable colonies of double transformant are isolated, and the test vector comprising the unknown cDNA is isolated.
The screening method used in this Example was performed as follows. A yeast double transformant was prepared by transforming S. cerevisiae strain FY250 with two yeast expression vectors. The first yeast expression vector comprised cDNA encoding a self-activating form of human caspase-8β operably linked to a GAL1 promoter and a LEU2 selectable marker. This first vector was a single copy vector and was designated YCpGAL1-caspase-8β-L. A plurality of second yeast expression vectors was used, each comprising a single random human cDNA sequence operably linked to a GAL1 promoter and a URA3 selectable marker. The cDNA sequences used to generate the plurality of second yeast expression vectors were obtained from a library of cDNAs prepared from human brain cells. The second vectors were multicopy vectors.
Double transformants were propagated on plates containing SC-leucine-uracil agar comprising dextrose. Colonies of double transformants were replica plated on plates containing medium comprising galactose, whereby expression of caspase-8β and of any product encoded by the cDNA of the second vector was induced. […] The second vector was recovered from individual colonies of double transformants which were able to survive on the galactose-containing medium and used, along with the first vector, to transform fresh FY250 cells. […] The identity of individual products encoded by the cDNA of individual second vectors was established by determining the nucleotide sequence of the cDNA and comparing the sequence with databases of known human gene sequences, including Genbank, the EST Database, and the Human Genome Database.

T1 sequence (Q14790 1-464 isoform Q14790-2): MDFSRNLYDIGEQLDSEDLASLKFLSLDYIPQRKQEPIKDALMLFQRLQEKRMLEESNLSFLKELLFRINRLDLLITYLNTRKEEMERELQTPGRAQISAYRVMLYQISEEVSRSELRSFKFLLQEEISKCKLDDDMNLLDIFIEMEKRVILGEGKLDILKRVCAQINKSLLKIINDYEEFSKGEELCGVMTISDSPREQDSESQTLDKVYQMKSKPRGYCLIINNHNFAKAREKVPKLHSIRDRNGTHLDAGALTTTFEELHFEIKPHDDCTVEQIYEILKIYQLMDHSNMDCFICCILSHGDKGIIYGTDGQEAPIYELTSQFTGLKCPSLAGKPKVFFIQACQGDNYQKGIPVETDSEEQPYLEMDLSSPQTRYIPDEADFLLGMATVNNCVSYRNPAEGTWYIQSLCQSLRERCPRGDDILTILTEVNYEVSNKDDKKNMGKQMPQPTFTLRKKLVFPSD

For the substance “Human Cytochrome b: product encoded by human brain cDNA, identified as caspase inhibitor”, the “identified as a caspase inhibitor (product of human brain cDNA suppressing caspase-8β-induced cell death)” value (from here on “identified as a caspase inhibitor”) was “caspase inhibitor” and the “Caspase Inhibitor” value is recorded as “✓”.

For “Human Synaptophysin p38: product encoded by human brain cDNA, identified as caspase inhibitor”, the “identified as a caspase inhibitor” value was “caspase inhibitor” and the “Caspase Inhibitor” value was “✓”.

As to “Human Tat Binding Protein: product encoded by human brain cDNA; also known as TBP, SUG1, and 26S proteosomal p45 subunit ATPase”, the “identified as a caspase inhibitor” value is on record as “caspase inhibitor” and the “Caspase Inhibitor” value was “✓”.

Regarding IETD/fmk [reference compound], the “Caspase Inhibitor” value was “✓”.

Regarding z-VAD-fmk [reference compound], the “Caspase Inhibitor” value is “✓”.

The record behind these values is US20010006793A1, “MODULATORS OF EUKARYOTIC CASPASES” (priority 1998, published 2001).
